Assay: yeast display, Sf9 membrane polyspecificity reagent, FACS + sequencing; frameworks hold sequencing errors
Procedure, shortened: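 Nanobodies from a synthetic yeast display library (Saccharomyces cerevisiae BJ5465), induced 36–48 hours with galactose, were stained 1 hour at 4 °C with 10% biotinylated, detergent-solubilized Sf9 membrane reagent, enriched on streptavidin microbeads, then FACS-sorted. Anti-HA (expression) and streptavidin (reagent binding) fluorescence set low and high (top ~1%) gates. Polyreactivity labels come from the gate of origin. Genes were colony-PCR amplified, MiSeq 2 × 250 sequenced and filtered by CDR length.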

Row | Sequence | polyreactivity (PSR sort gate)
1 | QVQLVESGGGLVQAGGSLRLSCAASGSIFSRYAMGWYRQAPGKERELVAAINGRGSRTYYADSVKGRFTISRDNEMNTVYLQMNSLKPEDTAVYYCAAGRSRLYGPRYFIYKYNYWGQGTQVTVSS | high polyreactivity
2 | QVQLVESGGGLVQAGGSLRLSCAASGRTFFGYAMGWCRQARGKEREFVAAISGSGGSTYYADSVKGRFTISRDYAKNTVYFKMNSLKPEDTAVYYCNAEYWGEYYYFGQGTQVTVSS | low polyreactivity
3 | QVQLVESGGGLVQAGGSLRLSCAASGFTFHSYAMGLYRQAPGKERELVAAISPGATTYYADSVKGRFTISRENANNTVYFKLNSLKPEDTAVYYFAASYQRVRDATVYTIYDYWGQGTQVTVSS | high polyreactivity
4 | QVQLVESGGGLVQAGGSLRLSCAASGRIFYRYAMGWYRQAPGKERELVAAIRYSGGRTYYADSVKGRFTISRDNAKNTVYLQMNSLKPEDTAVYDCAADGHWYYAPFGGGDYENDYWGQGTQVTVSS | low polyreactivity
5 | QVQLVDSGGGLVQAGGSLRLSCAASGLIFYHNTMGWSRQAPGKEREFVASISQSGGSTYYADSVKGRFTISRDNAKNTVYLQMNSLKPEDTAVYYCAKKVRRWRTMDYWGQGTQVTVSS | high polyreactivity
6 | QDQLVESGGGLVQAGGSLRLSCAASGRIFTRYAMGWYRQAPGKEREFVAAISVRGGTTYYADSVKGRFTISRDNAKNTVYLQMNSLKPEDSAVYYCAARKISKYDYWGQGTQVTVSS | high polyreactivity
7 | QFQLVESGGGLVQAGGSLRLSCAASGFTFYPYAMGWSRQAPGKERELVAAITRSGTSTFYADSVKGRFTISRDNAKNTVYLQMNSLKPEDTAVYYCAKGYFFVGTDWESYYWGQGTQVTVSS | low polyreactivity
8 | QVQLVESGGGLVQAGGRLRLSCAASGRTFYTNTMGWYRQAPGKERELVAAISYSGSSTYYADSVKGRFTISRDNAKNTGYLQINSLKPEDTAVYYCNAVRYYRYYYWGQGTQVTVSS | low polyreactivity
9 | QVQLVESGGGLVQAGGSLRLSCAASGSTFRGYAMGWYRQAPGKERELVAASTWSGVTTYYADSVKGRFTISRDNAKNNVYLQMHSLKPEDTAVYYCATGTLYSDGAIYGYWGQGTQVTVSS | low polyreactivity
10 | QVQLVESGGGLVQAGGSLRLSCAASGRTFGVNAMGWYRQAPGKERELVAAISRSGGSTYYADSVKGRFTISRDNAKTTVYLQMNSLKPEDTEVYYCAKSYFGHHLTGFGYWGQGTQVTVSS | low polyreactivity
11 | QVQLVESGGGLVQAGGSLRLSCAASGSTFVSNVMGWYRQAPGKERELVAAITRGGSTKYADSVKGRFTISRDNAKNSVYLQMNSLKPEDTAVYYCAKRLYTRPGWYDYWGQGTQVTVSS | high polyreactivity
12 | QVQLVESGGGLVQAGGSLRLSCAASGYTFGTYDMGWYRQAPGKERELVAAISIGGSTNYADSVKGRFTISRDNAKNTVYLQKNSLKPEDTAVYYCAAEVNVGTLLLSVIVEDGDYWGQGTQVTVSS | low polyreactivity
13 | QVQLVESGGGLVQAGGSLRLSCAASGHTFYYYTMGWYRQAPGKERELVASIRNGGNTNYADSVKGRFTISRDTAKNTVYLQMHSLKPEDTAVYYCAAVFGWSYITAYDWGQGTQVTVSS | high polyreactivity
14 | QVQLVESGGGLVQAGGSLRLSCAASGRIFDVYAMGWYRQAPGKERELVAAITWSGTSTYYADSVKGRFTISRDNAKNTVYLQKNSLKPEDTAVYYCAAEVAYTDTEYFWYYYWGQGTQVTVSS | high polyreactivity
15 | QVQLVESGGGLVQAGGSLRLSCAASGFILYYYAMGWYRQAPGIERELVAAISWSGDSTYYADSVKGRFTISRDNAKNTVYLQMNSLKPEDTAVYYCAATGQLTHRYYWGQGTQVTVSS | low polyreactivity
16 | QVQLVESGGGLVQAGGSLRLSCAASGRTFWVYAMGWYRQAPGKERELVAAIRRGGITNYADSVKGRFTISRDNAKNTVYLQMNSLKPEDTAVYSCATDNYGYLTRYYYWGQGTQVTVSS | low polyreactivity

Row | Sequence | polyreactivity (PSR sort gate)
17 | QVQLVESGGGLVQAGGILRLSCAASGRIFRPNAMGWYRQAPGKERELVAAISSGGSTYYADSVKGRFTLSRDNAKNSVYLQMNSLKPEDSAVYYCNAKASFWSPYDYWGQGTQVTVSS | high polyreactivity
18 | QVQLVESGGGLVQAGGSLRLSCAASGRTFRLYAMGWYRQAHGKERELVARISRGGSTYYADSVKGRFTISRDNAKNTVYLQMNSLKPEDTAVYYCAAVAYALGFASKEDYWGQGTQVTVSS | high polyreactivity
19 | QVQLVESGGGLVQAGGSLRLSCAASGFNFGWYAMGWYRQAPGKERELVAAISGRGGSTNYADSVKGRFTISRDNAKNTVYLQMNSLKPEDTAVYYCNAALSPWGNNYWGQGTQVSVSS | high polyreactivity
20 | QVQLVESGGGLVQAGGSLRLSCAASGFIFGGYTMGWYRQAPGKERELVAAISKTGGSTYYADSVKGRFTISRDNAKNTVYLQMNSLKPEDTAVYYCAVARSAYYRGNHWGQGTQVTVSS | high polyreactivity
21 | QVQLVASGGALVQAGGSLRLSCAASGRISTYTMGWYRQGPGKERELVATISTDASTNYADSVKGRFTISRDNAKNTVYLQMNSLKPEATAVYYCAAVIVNQDYDYWGQGTQLTVSS | low polyreactivity
22 | QVQLVVSGGGLVQAGGSLRLSFAASGFIFRYYGGGWYTPAPGKERELVAAITSTGRRYYADSVKGRFTISRDNAKNTVYLQMNSLKPEDTAVYYCAKAWLRWCEDYWGQGTQVTVSS | low polyreactivity
23 | QVQLVESGGGLVQAGGSLRLSCAASGIFGGYAMGWYRQAPGKERELVAAIRYSSGSTYYADSVKGRFTISRDNAKNTVYLQMKSLKPEDTAVYYCAAEVVEAPDNDYWGQGTQVTVSS | low polyreactivity
24 | QVELVESGGGLVQAGGSLRLSCAASGSTFVDNDMGWYRQAPGKERELVAAAITARGGSTYYADSVTGRFTISRDNAKNTDYIQMNSLKPEDTAVYYCAAGRPGELDYWGQGTQVTVSS | low polyreactivity
25 | QVQIVESGGGLVQPGGSLRLSCAASGSTFTRNAMGWYRQAPGKERELVAAISFSGGSTYYADSVKGRFTISRDTAKNTVYLQMNSLKPEDTAVYYCAAEEGRVFSGGYDYWGQGTQVTVSS | high polyreactivity
26 | QVQLVESGGGLVQAGGSLRLSCAASGSTFHINAMGWYRQAPGKERELVADINWSGGSTYYADSVKGRFTISRDNAKNTVYLQMNSLKPEDTAVYYCAADVGVFTYSPYDAGEHDYWGQGTQVTVSS | low polyreactivity
27 | QVQVVESGGGLVQAGGSLRLSCAASGLTFIFNAMGWYRQAPGKERELVADISSGVNTNYADSVKGRFSISRDNEKNTVYLQMNSLKTEDTEVHYCADRLAQTTGYGYWGQGTQVNVSS | low polyreactivity
28 | QVQLVESGGGLVQAGGSLRLSCAASGRILAPYAMGWYRQAPGKERELVAAINWSTGRTYYADSVKGRFTISRDNAKNTVYLQMNSLKPEDTAVYYCAALIVFDTLYDYGYWGQGPQVTVSS | low polyreactivity
29 | QVQLVESGGGLVQAGGSLRLSCAASGRIFGSYAMGWYRQAPGKERELVAAISWNGGSRYYADSVKGRFTISRDNAKNTVYLQMNSLKPEDTAVYYCAVVYRAYRSTAYLYGYWGQGTQVTVSS | high polyreactivity
30 | QVQLVESGGGLVQAGGSLRLSCAASGSIFYGNAMGWYRQAPGKERELVADITWSGGSTYYADSVKGRFTISRDNAKNTVYLQMNSLKPEDTAVYYCAAKVKHWYYPYYYWGQGTQVTVSS | low polyreactivity
31 | QVQLEESGGGLVQAGGSLRLSCAASGIIFRGNAMGWYIQAPGKERELFAAIRFSGGSTYYADSVKGRFTISRDNAKNTVYLQMNSLKPEDTAVYYCAATRRRYGSTTSEYYYWGQGTQVTVSS | high polyreactivity
32 | QVQLVESGGGLVQAGGSLRLSCAASGRTFSENAMGWYRQARGKERELVAAISGSGGRTYYADSVKGRFTISRDNAKNTVYLQMNSLKPEDTAVYYCAKVTRYGSTYDYWGQGTQVTVSS | high polyreactivity

Reference: the nanobody polyreactivity screen of Harvey et al. (2022)
